Literature values as cited in article PMC11816975, “Bioactive Peptides from Milk Proteins with Antioxidant, Anti-Inflammatory, and Antihypertensive Activities” (Foods, 2025).

Tests used:
NO production = test system: NO production; parameters: method as in PMID 23768340; settings: at 100 µg/mL
[1] = parameters: method as in PMID 23768340; settings: at 100 µg/mL

B1: bLF: bovine lactoferrin, orthologue compared with eLF (protein, UniProt P24627 20-708, looked up)
Lactotransferrin: APRKNVRWCTISQPEWFKCRRWQWRMKKLGAPSITCVRRAFALECIRAIAEKKADAVTLDGGMVFEAGRDPYKLRPVAAEIYGTKESPQTHYYAVAVVKKGSNFQLDQLQGRKSCHTGLGRSAGWIIPMGILRPYLSWTESLEPLQGAVAKFFSASCVPCIDRQAYPNLCQLCKGEGENQCACSSREPYFGYSGAFKCLQDGAGDVAFVKETTVFENLPEKADRDQYELLCLNNSRAPVDAFKECHLAQVPSHAVVARSVDGKEDLIWKLLSKAQEKFGKNKSRSFQLFGSPPGQRDLLFKDSALGFLRIPSKVDSALYLGSRYLTTLKNLRETAEEVKARYTRVVWCAVGPEEQKKCQQWSQQSGQNVTCATASTTDDCIVLVLKGEADALNLDGGYIYTAGKCGLVPVLAENRKSSKHSSLDCVLRPTEGYLAVAVVKKANEGLTWNSLKDKKSCHTAVDRTAGWNIPMGLIVNQTGSCAFDEFFSQSCAPGADPKSRLCALCAGDDQGLDKCVPNSKEKYYGYTGAFRCLAEDVGDVAFVKNDTVWENTNGESTADWAKNLNREDFRLLCLDGTRKPVTEAQSCHLAVAPNHAVVSRSDRAAHVKQVLLHQQALFGKNGKNCPDKFCLFKSETKNLLFNDNTECLAKLGGRPTYEEYLGTEYVTAIANLKKCSTSPLLEACAFLTR
- DPPH• radical scavenging capacity (at 500 µg/mL): approximately 33%

B2: cLF: isolated camel lactoferrin (protein, UniProt Q9TUM0 20-708, looked up)
Lactotransferrin: ASKKSVRWCTTSPAESSKCAQWQRRMKKVRGPSVTCVKKTSRFECIQAISTEKADAVTLDGGLVYDAGLDPYKLRPIAAEVYGTENNPQTHYYAVAIAKKGTNFQLNQLQGLKSCHTGLGRSAGWNIPMGLLRPFLDWTGPPEPLQKAVAKFFSASCVPCVDGKEYPNLCQLCAGTGENKCACSSQEPYFGYSGAFKCLQDGAGDVAFVKDSTVFESLPAKADRDQYELLCPNNTRKPVDAFQECHLARVPSHAVVARSVNGKEDLIWKLLVKAQEKFGRGKPSGFQLFGSPAGQKDLLFKDSALGLLRISSKIDSGLYLGSNYITAIRGLRETAAEVELRRAQVVWCAVGSDEQLKCQEWSRQSNQSVVCATASTTEDCIALVLKGEADALSLDGGYIYIAGKCGLVPVLAESQQSPESSGLDCVHRPVKGYLAVAVVRKANDKITWNSLRGKKSCHTAVDRTAGWNIPMGLLSKNTDSCRFDEFLSQSCAPGSDPRSKLCALCAGNEEGQNKCVPNSSERYYGYTGAFRCLAENVGDVAFVKDVTVLDNTDGKNTEQWAKDLKLGDFELLCLNGTRKPVTEAESCHLAVAPNHAVVSRIDKVAHLEQVLLRQQAHFGRNGRDCPGKFCLFQSKTKNLLFNDNTECLAKLQGKTTYEEYLGPQYVTAIAKLRRCSTSPLLEACAFLMR
- DPPH• inhibition (at 100 µg/mL, ref Habib et al. 55): 2.77%
- inhibition of NO production (NO production): about 5%
- ferric reducing power [1]: 0.317 mM Fe^2+
